For test [1], the target named is Wild-type AAV2 capsid (AAV2) (UniProt P03135). Put plainly: A20 capsid ELISA on CsCl-purified particles.
Test [2] concerns the target AAV2 capsid mutant I-447 (P1 peptide inserted after amino acid 447) (AAV2) (UniProt P03135). The test is described as follows: A20 capsid ELISA on CsCl-purified particles.
Test [3] has as its target AAV2 capsid mutant I-587 (P1 peptide inserted after amino acid 587) (AAV2) (UniProt P03135). Put plainly: A20 capsid ELISA on CsCl-purified particles. For orientation: An ELISA detects its analyte on a solid surface through an enzyme-linked reagent.
The target of test [4] is AAV2 capsid VP3 mutant ins587 (insertion after amino acid 587, site LQRGN RQAAT) (AAV2) (UniProt P03135). The test is described as follows: A20 capsid ELISA on virus stock.
Test [5] has as its target AAV2 capsid VP3 mutant ins447 (insertion after amino acid 447, site YYLSR TNTPS) (AAV2) (UniProt P03135). The test is described as follows: A20 capsid ELISA on virus stock.
Test [6] concerns the target Wild-type AAV2 capsid (AAV2) (UniProt P03135). Put plainly: A20 capsid ELISA on virus stock.
Test [7] has as its target AAV2 capsid VP1 mutant B+L (insertion of the P1 peptide at the BsrBI cleavage site) (AAV2) (UniProt P03135). Put plainly: A20 capsid ELISA on virus stock.
The target in test [8] is AAV2 capsid VP1 mutant ΔBH+L (deletion between BsrBI and HindIII, and insertion of the P1 peptide) (AAV2) (UniProt P03135). Put plainly: A20 capsid ELISA on virus stock.
The target of test [9] is AAV2 capsid VP1 mutant ΔBH (deletion between BsrBI and HindIII cleavage sites of VP-1, 29 amino acids) (AAV2) (UniProt P03135). The test is described as follows: A20 capsid ELISA on virus stock.
Test [10] has as its target AAV2 capsid VP1 mutant ΔXho (deletion between the XhoI-XhoI cleavage sites of VP-1, 62 amino acids) (AAV2) (UniProt P03135). Put plainly: A20 capsid ELISA on virus stock.

As to A20 monoclonal antibody, the results for the titer (ELISA with A20 MAb) in [1], in test [2] and in [3] were 6e+12 particles/ml, 8e+11 particles/ml and 3e+12 particles/ml, respectively. In addition, the capsid titer (ELISA with A20 MAb) worked out at 2e+10 particles/ml in [4]; 4e+10 particles/ml in [5]; 1e+11 particles/ml in [6]; 5e+09 particles/ml in test [7]; 5e+10 particles/ml in test [8]; 4e+09 particles/ml in [9]. The same substance showed a capsid titer (ELISA with A20 MAb) in test [10] of 5e+10 particles/ml.

For the origin of these results see patent publication US7285381.
